# Measurements: the DeepSol protein solubility set
# Test: soluble on expression in E. coli; label from the status in PepcDB or PDB records
row,Sequence,soluble on expression in E. coli
1,MARNVKGYASTLTWTITRNTLNFLWEQGFKMRINREEILDLMKNAPLKELGQRALRVKQRLHPENLTTFIVDRNINYTNICFVDCKFCAFKRTLKEKDAYVLSYEEIDQKIEELLAIGGTQILFQGGVHPQLKIDYYENLVSHIAQKFPTITIHGFSAVEIDYISKISKLSLKEVLERLKNAGLSSIPGAGAEVLSDRVRDVIAPKKLSSDRWIEVHRMAHLCGIKSTATMMFGSVDNEEDVVEHLQRVRDLQDETGGFRAFILWSFQPNNTPLKEEIPSIKKASSNRYLRYLACSRIFLDNIQNIQSSWVTQGSMIGQLALLFGANDLGSVMMEENVVKAAGTSFCMNEAGMIELIEDIGSVAAKRNTAYEILKRYPAKAKV,not soluble
2,MTNKKKEITIHSSAAEYLTYVASTGRNSDSFEMRYEDENIWLTQKMMATLYDVSVSAINQHLKRIFEDDELVEESVIKKYLITASDGKSYSTKHYNLQAIIAVGFKVNNDRAVRFRKWAGQIVKDYTIQGWTMDKERLKKGHMFTDEYFERQLENIREIRLSERKFYQKVTDLYATAFDYDKDAKTTRQFFKMVQNKMHWAVHRHTAAELIVERANAEKEHMGLTTWESAPDGKIVKADVTVAKNYLSEKEMSYLQRIVSLYLDYAELQAERRIPMSMEDWAKRLDGFLEFNGNELLMGLGKVSAEQAKLHAETEFEKYRIVQDRLFMSDYDKYLIELEHQADQSDV,not soluble
3,MGHHHHHHSHKLEEAYEPNQVAISLIGEPTLYPMLPELIEEYKKRGFTTFLVTNGTNPDMLEKVKPTQLYLSLTAFDEDSHLVLNRPGKSNWERVLRSLEVMRDSGSRTVIRLTLIRGYNMDEEAIRKYSELIEMAEPDFIEAKAYMYLGYSRLRLRWGNMPEHADIVEFSRKLADSTGYEVKRESEPSRVVL,not soluble
4,MDDPSITPTEKCRFYLGITLRDDTKARPVPGIMQIPGGRYAVFRHTGSYSSLHKVYRSIYEEWFPKSKYHPQSTFSFEMYMNHPSTTETSELLTEIYIPVIRK,not soluble
5,MDVLEISKKILHEGPVCDHCMGRQFAKLSTGLSNRERGQAVKLALALEGDRIYKSENDDSLLKELAPCSALARKTLRIEGENEQCWVCLDQFKKLDFWAEEAAKALEGLEYSTFLVGTKVSGLLSENEEILWAEAGTAYAEQLKTELNREVGKRIAERVNKEVDFENPDIVITLDLATNKFELQVRSVYIYGRYLKKVRGIPQTRWPCRKCRGKGCEKCGFTGKQYPESVDELIKGPVVEAFEAVDTAFHGSGREDIDALMLGSGRPFVVEAKSPVKRSADLEALAAKINENAAGKVEVRDLRFVEKGMIETLKSSKADKTYKLKVTFKEPVSEEKLKSCLESLNGTEIAQQTPKRVVHRRADLIRKRYVHSITLNELTDDGYAYITVNCEGGLYVKELISGDEGRTNPSLTGLLGIPALVEDLDVVNVEILEHHHHHH,soluble
6,MSLNEESFEEFSMVLEDDLVGGTFSKVGEHNKRENEDFYITKDILDLNNVSESQGLCFYSGIFDGHGGSNCARYVMNHLKTNVIAKFRQSFLITCKKKFKEKGSKLNELSVELRALYDSCIKGFDMTDKNYIELSKKYNYKDGSTACIVLIYGPDDDGSLKVLCANCGDSGAFICHNKKPIKLSLRHKPDLQEERIRILKCGGIIANINGINRIITKHKDRNNLNENNNNKSKEKTFLALSTSRSFGDISYKIPRKIVQCKPFISVYTIDFDLDSFLVLATDGILNVLSDEEIIDIIWKNIHRKPEQAAEEVVNEATRRGSTDDKTCTVIFFYWRKEGHHHHHH,soluble
7,TKDFIWNLSFNGTHYSNKILNLPEDKRENGIIHGTASLFRLMEGGSIYDLYTYEYAGVNPETGAAQWYMDEKDANGKVTGRTVTEDYTQASKYELGSTLPDFQGGFSTDFAYKGIDLSIATNFQIGGKIYDSMYSSFMHAGSNIGSNWHKDILNAWTPENKNTNVPIMDGAQNSNSQSSRFLINASFFNIRNISLGYTFPKEWMKAISASSARIYVSADNVALFSKRKGMDPRQYAYGYSAANYSAIRTLSFGINLNF,not soluble
8,MTSIDVTEIIKSSTSSLYQPARKKSRFDDSASSSSQAGQPKPEDILAALEADQSNYVALDDVQVKKLVIQLDKKMRLNREQRVKNPDDAQKFMESEIELDKAIQEMHSLASQPDLYGSFVEVNGVEILLQLLGHENTDIVCATLSLLRELTDDDVMNEGEDGAAELIESLVSGSIITTLLACVERLDESVKDEADGVHNALGVVDNMIGFRDDITEECVKHGFTVWLLKRCFQKGAFDANKMYASELLSVILQTSDTAKAKLTEKIDGIDILLRTIAVYKKNDPANVDEREYMENLFNSLCAALMHPANRKKFLDGEGLQLMNLMLREKKQARQSALKVLNHATSGDEGIENCNKLVEMLGLRTIFPLFMRTPSKTKRKDTTPDEHEEHVCTILSSLLAACSENHRQRIVQKFVEHEHEKVDRAVELFLKYKEKVQRFELKKKRQSQEAGTSEDDDPDRAYLDKLDNGLYTLQRLTLILGEVAVGVESARLREEKLFQMKMSQNRLDLMLCPIIQEYSDNLGDDANIEQERVLVMLSKIEDFYK,not soluble
9,MSDFEETIRRLQSEKGVVGIIVVDSAGRVIHSTIDSDATQSHTAFLQQLCEKTKTSIRELDSSNDLTFLRLRTKKNEIMIAPDKDHVIMVIKDLS,not soluble
10,GYIVDMSKWNGSPDWDTAKGQLDLVIARVQDGSNYVDPVYKDYVAAMKARNIPFGSYAFCRFVSVEDAKVEARDFWNRGDKDSLFWVADVEVTTMSDMRAGTQAFIDELYRLGAKKVGLYVGHHKYEEFGAAQIKCDFTWIPRYGAKPAYPCDLWQYDEYGQVPGIGKCDLNRLNGDKSLDWFTGKGEE,soluble
11,MKNETLHTQEDIIKMLDSLLRPAEPFWNEFYANREKDVPFFENVPDENLVSYIQKKRVSKGKVLELGCGPGRNAIYLANEGFDVTAVDVSIEGINWAKERALAKGVEIEFICDSIFNLEVQNEFDFVYDSGCLHHIPPHRRVNYVDLIKNALKSGGYFGLTCFAAGDLDERNGSEITDWDVYRGWSLQGGLAYSEEKLREIFKGFEVIEIRKMEQIEQPNTMFGESFLWTALFKKNLEHHHHHH,soluble
12,MTELHGECMCGAVTITATPARAALGACHCDMCRRWTSSAYVSFPVEPGYAALGPVKVYGSSDWAERAFCGTCGSVLWYRITLPGKMHGQTQMAAGLFENAGGNALKLELYIDKKPEGYAFAGERRQMTQAEVEAMYAPSDLGDSQ,not soluble
13,MIMVNNDAVVRNVYHKYFHPKEALVSSGVLNREISRAAGKAVPGIIDEESSGNNAQ,soluble
14,HPHVENFTIIGSGFQAETQLEGMITVSHPQSIRVYSRNYDHAKDFASRMSKQFGVDIRPVDNAEAALSDADTVSSITNSTSPVILRKYLGDEYHVNLAGSNYMNRREAEYEVLHDADLVVTEHYDQSMVESAEISEYVKFGGKPVELREIAGRYGEFSGLRRTVFKSMGIGLEDIATAYRVLRNLGIA,not soluble
15,MRFLTAGESHGPELLAIIEGLPAGLPLSEEDINPWLEKRQKGYGRGRRMVIERDRVEFRAGVRGGRTTGAPVALAIKNADFKNWAEIMDPAPGNWPRKRALTAARPGHADLAGGMKYGHKDLRDVLERASARETAMRVAVGAVALKLLSLLGVEGVGYVPGMAGVWAKVPFSWDLVPRIEESPLRMTDPEAEAEAIRRIDQAKAEGDTLGGIIEARFRGLVPGLGSHVHWDRKLDGRLAQMALSIPAVKGVEIGPAFENAMKRGSEVHDAIYWSPERGFYRKTNRAGGLEGGMTTGEELVVRAALKPIATLMKPLPTVDVVTHEPKDAARERSDTTAVPAASVILCALSAIVLAQAYLEKFGGDTMEEIQERVERYRERVRAY,soluble
16,MGSDKIHHHHHHMGKHTKFGSSDDEGETETSVAKRQKDEKKEKKKEKRDRSRSPHKERERSPKRDRHPEKNESRRHDDRDQERRRDYGRNDRRDDRRGDGSWKTDRNDRNDRRNDFQRRDDKNRLSAEEIAAQRKALWGNKKVAGESSSSNTTDTASSSSEPATGGKNEKLWSSAIAATGVDSSKANKFMRLMGVKNAPKPTDDSSRLSDEKNRQDKMLNDLEKQYAIARETTHMGRGTGFGFGH,not soluble
17,MSDGERVLKIPVEYFEDGWKKGEAVITKDAISFAGKTIRFKEIQDLERLKHEGRDAIRIKKDADYFIDFGSRQAQIFRYLAFNLKSDRFAVYFLSPATRGGVVVSDSKWEKGYLSITDEALWFLSSSKQIRISIQNLGSVEKDIRTVGKKQRVVLVVTHVENGEVITSFVLCPETTMDMLQEYIQNFIEKSKPKEKLSEVEEQILTMVYTGVDSVSVESILGVTTEELNKMYDRLVNLGLARVVKIRKEIELTPRGVALVSEIMKKAAR,not soluble
18,SPSPWGWFAVTACGAQRNNFEEPVALQEMDTSNGVLLPFYDPDSSIVYLCGKGDSSIRYFEITDEPPFVHYLNTFSSKEPQRGMGFMPKRGLDVSKCEIARFYKLHERKCEPIIMTVPRKSDLFQDDLYPDTPGPEPALEADEWLSGQDAEPVLISLRDGYVPPKHRELRVTKRNILDVRPPSGPRRSQSASDAPLSQHTLETLLEEIKALRERVQAQEQRITALENMLCELVDGTD,soluble
19,HITLNYLSKTLGMHQTINVILPEDKSYFDTNENAKPLKTMLLLHGLSSDTSSYMRYTSIERYANTHQLAVVMPNADHSFYSNMAYGHSYYDYILEVYDYVHQILPLSKKREDNFIAGHSMGGYGAIKFALTQSYRFSKAAMLSAPYDVSMIGQYQWYDFTPEAIVGNTQHVAGTSFDPYYLVEQAIDNGQALPQLYITCGTEDELYQGNIDFVNYLDEKGIPYQFKKAPGNHDYAFWDKAIEDVIDRF,not soluble
20,MRDVLFLPFADGMELAVAADGSAAVGDKPGDVVSAPADVVAYFAARVALMELVSVGAEAKAVVLQNFIADDRWEALCRGVRRTCRELGIDLPITGSTESNFPTVQSALGVTAIGTVANERKRIGITPEEAKFAVIGRPLVGSAVLSHPEWVAPLPLFAALLRTPYIYELIPIGSKGIYYEWTQLLAANGRQGRACACPLPLFSSGGPATSVLVSYDPDGEREIKKQAGSLFFPLHVEW,not soluble
21,GNKIPTTMAFRTVTDVDNAVNGLYDLMSGSGYYGAAMFAYGDMKGDDMQSSEESGVCNTCYMFNHRPNSLNAGSLWGRPFYILREAWNILNAIAEGKIESGDEKKLNALKGETMAVIALCQFDLTRCFGYPYTKDKGASLGAPLIDHLVGTYENPPRSTVAQAYDFIIETLEEAVTLMSEEKNNGRMNKYAARALLARIYLYHDDNRKAFDLADQLIKDADTSGSYALYPHEKYVAAWSVEAKFGSESFFEIANSVDDTPGRDSWGYLLNWYGYQKGFVTQKYAEQMLADPGDVRGHLLEENKYAGKTVWWLYKLRGTDLKTAPLECNNVVLRLSEVYLIAAEAGCKLGGDAAVQGLGYLNEIVKRGNPDNEVTMADYTLDRVLDERSKELVGEGHRFFDLLRNGKTIVRKGGYHLPSVDEEVDWDFYKCVLPIPEDQFIFSPEMEQNPGYPKN,soluble
22,KPGAPWWKSAVFYQVYPRSFKDTNGDGIGDFKGLTEKLDYLKGLGIDAIWINPHYASPNTDNGYDISDYREVMKEYGTMEDFDRLMAELKKRGMRLMVDVVINHSSDQHEWFKSSRASKDNPYRDYYFWRDGKDGHEPNNYPSFFGGSAWEKDPVTGQYYLHYFGRQQPDLNWDTPKLREELYAMLRFWLDKGVSGMRFDTVATYSKTPGFPDLTPEQMKNFAEAYTQGPNLHRYLQEMHEKVFDHYDAVTAGEIFGAPLNQVPLFIDSRRKELDMAFTFDLIRYDRALDRWHTIPRTLADFRQTIDKVDAIAGEYGWNTFFLGNHDNPRAVSHFGDDRPQWREASAKALATVTLTQRGTPFIFQGDELGMTNYPFKTLQDFDDIEVKGFFQDYVETGKATAEELLTNVALTSRDNARTPFQWDDSANAGFTTGKPWLKVNPNYTEINAAREIGDPKSVYSFYRNLISIRHETPALSTGSYRDIDPSNADVYAYTRSQDGETYLVVVNFKAEPRSFTLPDGMHIAETLIESSSPAAPAAGAASLELQPWQSGIYKVK,soluble
